Patent US20200385425A1

Target: PDZ1/2 domain (Homo sapiens (Human)) (UniProt P78352)
Assay: SPR, Biacore 3000, PDZ1/2 amine-coupled on CM5 chip, peptide as analyte, 1:1 binding model

Sequence of PDZ1/2 domain (Homo sapiens (Human)) (P78352 65-246 limits assumed): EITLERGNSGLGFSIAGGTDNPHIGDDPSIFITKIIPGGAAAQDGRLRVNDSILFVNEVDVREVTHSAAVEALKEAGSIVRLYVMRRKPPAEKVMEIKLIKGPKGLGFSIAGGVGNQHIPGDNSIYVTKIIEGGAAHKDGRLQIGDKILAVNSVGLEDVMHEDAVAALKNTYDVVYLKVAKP

Substance: control chimeric peptide NA-1
- Kd: 0.0753 µM
